Experiments:
Test in all cases: cell-based or functional assay
[1] = biological target: HIV-1 APV_6 Env on pseudovirus (HIV-1)
[2] = biological target: HIV-1 MGRM-C-017 Env on pseudovirus (HIV-1)
[3] = biological target: HIV-1 CAAN.A2 (Acute) Env on pseudovirus (HIV-1)
[4] = biological target: HIV-1 92TH021 Env (HIV-1)
[5] = biological target: HIV-1 92UG024 Env (HIV-1)
[6] = biological target: HIV-1 VLGCB3 Env on pseudovirus (HIV-1)
[7] = biological target: HIV-1 MGRM-F1-017 Env (HIV-1)
[8] = biological target: HIV-1 JRFL Env on pseudovirus (HIV-1)
[9] = biological target: HIV-1 MGRM-F1-021 Env (HIV-1)
[10] = biological target: HIV-1 MGRM-AG-003 Env (HIV-1)
[11] = biological target: HIV-1 92BR020 Env on pseudovirus (HIV-1)
[12] = biological target: HIV-1 MGRM-C-025 Env on pseudovirus (HIV-1)
[13] = biological target: HIV-1 94UG103 Env (HIV-1)
[14] = biological target: HIV-1 92UG046 Env (HIV-1)
[15] = biological target: HIV-1 MGRM-AG-012 Env (HIV-1)
[16] = biological target: HIV-1 MGRM-C-006 Env on pseudovirus (HIV-1)
[17] = biological target: HIV-1 MGRM-C-004 Env on pseudovirus (HIV-1)
[18] = biological target: HIV-1 MGRM-D-022 Env (HIV-1)
[19] = biological target: HIV-1 93MW959 Env on pseudovirus (HIV-1)
[20] = biological target: HIV-1 MGRM-F1-023 Env (HIV-1)
[21] = biological target: HIV-1 TRJ0.58 (Acute) Env on pseudovirus (HIV-1)
[22] = biological target: HIV-1 MGRM-G-013 Env (HIV-1)
[23] = biological target: HIV-1 MGRM-G-019 Env (HIV-1)
[24] = biological target: HIV-1 MGRM-D-008 Env (HIV-1)
[25] = biological target: HIV-1 MGRM-C-015 Env on pseudovirus (HIV-1)
[26] = biological target: HIV-1 MGRM-C-010 Env on pseudovirus (HIV-1)
[27] = biological target: HIV-1 IAVI-C22 Env (HIV-1)
[28] = biological target: HIV-1 97ZA012 Env on pseudovirus (HIV-1)
[29] = biological target: HIV-1 MGRM-F1-012 Env (HIV-1)
[30] = biological target: HIV-1 APV-6 Env (HIV-1)
[31] = biological target: HIV-1 LAVI_C3 Env on pseudovirus (HIV-1)
[32] = biological target: HIV-1 NL43 Env (HIV-1)
[33] = biological target: HIV-1 MGRM-F1-014 Env (HIV-1)
[34] = biological target: HIV-1 MGRM-C-007 Env on pseudovirus (HIV-1)
[35] = biological target: HIV-1 MGRM-D-020 Env (HIV-1)
[36] = biological target: HIV-1 MGRM-G-025 Env (HIV-1)
[37] = biological target: HIV-1 MGRM-D-014 Env (HIV-1)
[38] = biological target: HIV-1 IAVI-C18 Env (HIV-1)
[39] = biological target: HIV-1 APV-17 Env (HIV-1)
[40] = biological target: HIV-1 MGRM-AG-001 Env (HIV-1)
[41] = biological target: HIV-1 MGRM-AE-004 Env (HIV-1)
[42] = biological target: HIV-1 MGRM-D-018 Env (HIV-1)
[43] = biological target: HIV-1 MGRM-C-009 Env on pseudovirus (HIV-1)
[44] = biological target: HIV-1 MGRM-C-013 Env on pseudovirus (HIV-1)
[45] = biological target: HIV-1 MGRM-F1-010 Env (HIV-1)
[46] = biological target: HIV-1 MGRM-AG-011 Env (HIV-1)
[47] = biological target: HIV-1 MGRM-AG-013 Env (HIV-1)
[48] = biological target: HIV-1 MGRM-D-002 Env (HIV-1)
[49] = biological target: HIV-1 MGRM-F1-006 Env (HIV-1)
[50] = biological target: HIV-1 94UG114 Env (HIV-1)
[51] = biological target: HIV-1 MGRM-D-029 Env (HIV-1)
[52] = biological target: HIV-1 SC422661.8 (Acute) Env on pseudovirus (HIV-1)

Chain of 1443_C16 (PG16) (TCN-116) (antibody) (VH): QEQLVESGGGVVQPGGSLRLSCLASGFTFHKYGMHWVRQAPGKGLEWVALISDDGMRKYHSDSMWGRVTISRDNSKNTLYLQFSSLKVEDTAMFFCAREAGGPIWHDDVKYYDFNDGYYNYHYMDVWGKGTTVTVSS
Chain of 1443_C16 (PG16) (TCN-116) (antibody) (VL): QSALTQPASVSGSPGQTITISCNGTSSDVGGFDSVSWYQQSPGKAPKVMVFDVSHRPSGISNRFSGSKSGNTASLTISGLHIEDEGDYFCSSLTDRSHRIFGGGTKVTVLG

Q: How did the IC50 [1] turn out when 1443_C16 (PG16) (TCN-116) (antibody) was run?
A: 0.29 µg/mL

Q: And the IC50 [2]?
A: 1.8 µg/mL

Q: What about the IC50 [3] of the same substance?
A: 8.83 µg/mL

Q: And the IC50 (µg/ml), pseudovirus neutralization [4]?
A: 0.1 µg/mL

Q: And the neutralization IC50 [4]?
A: 0.127 µg/mL

Q: What about the neutralization IC90 [4] of the same substance?
A: 23.4 µg/mL

Q: And the IC50 (µg/ml), pseudovirus neutralization [5]?
A: 24 µg/mL

Q: What about the neutralization IC50 [5] of the same substance?
A: > 50 µg/mL

Q: And the neutralization IC90 [5]?
A: > 50 µg/mL

Q: And the IC50 [6]?
A: 0.4 µg/mL

Q: And the IC50 (pseudovirus neutralization) [7]?
A: > 50 µg/mL

Q: What about the IC50 [8] of the same substance?
A: > 50 µg/mL

Q: And the IC50 (pseudovirus neutralization) [9]?
A: > 50 µg/mL

Q: What about the IC50 (µg/ml), pseudovirus neutralization [10] of the same substance?
A: > 50 µg/mL

Q: And the IC50 [11]?
A: > 50 µg/mL

Q: And the IC50 [12]?
A: 0.04 µg/mL

Q: And the neutralization IC50 [13]?
A: 0.008 µg/mL

Q: And the neutralization IC90 [13]?
A: 1.59 µg/mL

Q: What about the IC50 (µg/ml), pseudovirus neutralization [14] of the same substance?
A: 1.42 µg/mL

Q: What about the IC50 (µg/ml), pseudovirus neutralization [15] of the same substance?
A: 25.1 µg/mL

Q: What about the IC50 [16] of the same substance?
A: 2.62 µg/mL

Q: And the IC50 [17]?
A: 5.09 µg/mL

Q: And the IC50 (µg/ml), pseudovirus neutralization [18]?
A: > 50 µg/mL

Q: And the IC50 [19]?
A: 0.007 µg/mL

Q: What about the IC50 (pseudovirus neutralization) [20] of the same substance?
A: > 50 µg/mL

Q: What about the IC50 [21] of the same substance?
A: 1.16 µg/mL

Q: What about the IC50 (µg/ml), pseudovirus neutralization [22] of the same substance?
A: > 50 µg/mL

Q: And the IC50 (µg/ml), pseudovirus neutralization [23]?
A: 1.21 µg/mL

Q: And the IC50 (µg/ml), pseudovirus neutralization [24]?
A: > 50 µg/mL

Q: What about the IC50 [25] of the same substance?
A: 0.26 µg/mL

Q: What about the IC50 [26] of the same substance?
A: > 50 µg/mL

Q: And the neutralization IC50 [27]?
A: 0.0687 µg/mL

Q: What about the neutralization IC90 [27] of the same substance?
A: > 50 µg/mL

Q: What about the IC50 [28] of the same substance?
A: 2.55 µg/mL

Q: And the IC50 (pseudovirus neutralization) [29]?
A: 0.003 µg/mL

Q: And the neutralization IC50 [30]?
A: 0.08 µg/mL

Q: What about the neutralization IC90 [30] of the same substance?
A: 44.3 µg/mL

Q: What about the IC50 [31] of the same substance?
A: 9.55 µg/mL

Q: What about the neutralization IC50 [32] of the same substance?
A: < 0.0025 µg/mL

Q: And the neutralization IC90 [32]?
A: > 50 µg/mL

Q: And the IC50 (pseudovirus neutralization) [33]?
A: 0.01 µg/mL

Q: What about the IC50 [34] of the same substance?
A: 0.05 µg/mL

Q: And the IC50 (µg/ml), pseudovirus neutralization [35]?
A: 16.3 µg/mL

Q: What about the IC50 (µg/ml), pseudovirus neutralization [36] of the same substance?
A: > 50 µg/mL

Q: And the IC50 (µg/ml), pseudovirus neutralization [37]?
A: 0.003 µg/mL

Q: And the neutralization IC50 [38]?
A: 0.0067 µg/mL

Q: What about the neutralization IC90 [38] of the same substance?
A: 0.207 µg/mL

Q: And the neutralization IC50 [39]?
A: > 50 µg/mL

Q: What about the neutralization IC90 [39] of the same substance?
A: > 50 µg/mL

Q: And the IC50 (µg/ml), pseudovirus neutralization [40]?
A: 0.03 µg/mL

Q: What about the IC50 (µg/ml), pseudovirus neutralization [41] of the same substance?
A: 0.002 µg/mL

Q: What about the IC50 (µg/ml), pseudovirus neutralization [42] of the same substance?
A: 0.004 µg/mL

Q: And the IC50 [43]?
A: > 50 µg/mL

Q: And the IC50 [44]?
A: > 50 µg/mL

Q: And the IC50 (pseudovirus neutralization) [45]?
A: 0.01 µg/mL

Q: What about the IC50 (µg/ml), pseudovirus neutralization [46] of the same substance?
A: 0.002 µg/mL

Q: And the IC50 (µg/ml), pseudovirus neutralization [47]?
A: 0.31 µg/mL

Q: What about the IC50 (µg/ml), pseudovirus neutralization [48] of the same substance?
A: 0.01 µg/mL

Q: What about the IC50 (pseudovirus neutralization) [49] of the same substance?
A: 0.27 µg/mL

Q: What about the IC50 (µg/ml), pseudovirus neutralization [50] of the same substance?
A: > 50 µg/mL

Q: And the IC50 (µg/ml), pseudovirus neutralization [51]?
A: > 50 µg/mL

Q: What about the IC50 [52] of the same substance?
A: 1.13 µg/mL

Reference: patent publication US20160264649A1
